Earlier results in article PMC2749146.

Tested on: Cys
Assay: UV-vis
Conditions: Reduced; the protein unfolds below pH 3, so deprotonation and unfolding overlap.

## DsbA (EcDsbA) (Escherichia coli)
  pKa: ∼3.5
